Assay results: the supplement of paper PMC10567573

B1: NFE2L1 (parent)
chain: TLDGYGIHPKSIDLDNYFTARRLL

Variants of: B1
Assay: protein stability index of a GFP-peptide fusion (GPS, HEK-293T) (PSI 1-6); higher = more stable
Conditions: c terminus: a fixed tail appended
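Note: lentivirally expressed fusions sorted by FACS into six bins by GFP to DsRed ratio, PSI derived from sequencing read proportions per bin multiplied by bin number.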

| Variant | protein stability index |
| --- | --- |
| TLDGYGILPKSIDLDNYFTARRLL [H8L] | 1.67 |
| TLDGYGIYPKSIDLDNYFTARRLL [H8Y] | 1.72 |
| TLDGYGICPKSIDLDNYFTARRLL [H8C] | 1.87 |
| TLDGYGIIPKSIDLDNYFTARRLL [H8I] | 1.98 |
| TLDGYGIEPKSIDLDNYFTARRLL [H8E] | 2.42 |
| TLDGYGIFPKSIDLDNYFTARRLL [H8F] | 1.95 |
| TLDGYGIAPKSIDLDNYFTARRLL [H8A] | 2.22 |
| TLDGYGIMPKSIDLDNYFTARRLL [H8M] | 1.82 |
| TLDGYGHHPKSIDLDNYFTARRLL [I7H] | 2.85 |
| TLDGYGSHPKSIDLDNYFTARRLL [I7S] | 1.91 |
| TLDGYGRHPKSIDLDNYFTARRLL [I7R] | 2.04 |
| TLDGYGYHPKSIDLDNYFTARRLL [I7Y] | 1.9 |
| TLDGYGKHPKSIDLDNYFTARRLL [I7K] | 1.75 |
| TLDGYGQHPKSIDLDNYFTARRLL [I7Q] | 2.35 |
| TLDGYGVHPKSIDLDNYFTARRLL [I7V] | 1.68 |
| TLDGYGAHPKSIDLDNYFTARRLL [I7A] | 2.01 |
| TLDGYGGHPKSIDLDNYFTARRLL [I7G] | 1.92 |
| TLDGYGLHPKSIDLDNYFTARRLL [I7L] | 1.7 |
| TLDGYGCHPKSIDLDNYFTARRLL [I7C] | 2.4 |
| TLDGYGPHPKSIDLDNYFTARRLL [I7P] | 2.12 |
| TLDGYGDHPKSIDLDNYFTARRLL [I7D] | 2.4 |
| TLDGYGTHPKSIDLDNYFTARRLL [I7T] | 1.78 |
| TLDGYGEHPKSIDLDNYFTARRLL [I7E] | 2.27 |
| TLDGYGWHPKSIDLDNYFTARRLL [I7W] | 1.67 |

| Variant | protein stability index |
| --- | --- |
| TLDGYGNHPKSIDLDNYFTARRLL [I7N] | 2.1 |
| TLDGYGFHPKSIDLDNYFTARRLL [I7F] | 1.62 |
| TLDGYGMHPKSIDLDNYFTARRLL [I7M] | 1.75 |
| TLDGYGIHPKSIDFDNYFTARRLL [L14F] | 1.82 |
| TLDGYGIHPKSIDADNYFTARRLL [L14A] | 2.2 |
| TLDGYGIHPKSIDEDNYFTARRLL [L14E] | 3.11 |
| TLDGYGIHPKSIDCDNYFTARRLL [L14C] | 2.39 |
| TLDGYGIHPKSIDGDNYFTARRLL [L14G] | 2.31 |
| TLDGYGIHPKSIDHDNYFTARRLL [L14H] | 2.01 |
| TLDGYGIHPKSIDMDNYFTARRLL [L14M] | 2.02 |
| TLDGYGIHPKSIDKDNYFTARRLL [L14K] | 2.49 |
| TLDGYGIHPKSIDDDNYFTARRLL [L14D] | 2.71 |
| TLDGYGIHPKSIDIDNYFTARRLL [L14I] | 2.12 |
| TLDGYGIHPKSICLDNYFTARRLL [D13C] | 2 |
| TLDGYGIHPKSIFLDNYFTARRLL [D13F] | 1.48 |
| TLDGYGIHPKSINLDNYFTARRLL [D13N] | 2.1 |
| TLDGYGIHPKSIWLDNYFTARRLL [D13W] | 2.21 |
| TLDGYGIHPKSIHLDNYFTARRLL [D13H] | 1.64 |
| TLDGYGIHPKSILLDNYFTARRLL [D13L] | 1.73 |
| TLDGYGIHPKSIKLDNYFTARRLL [D13K] | 1.72 |
| TLDGYGIHPKSIQLDNYFTARRLL [D13Q] | 2.01 |
| TLDGYGIHPKSIMLDNYFTARRLL [D13M] | 1.64 |
| TLDGYGIHPKSISLDNYFTARRLL [D13S] | 1.83 |
| TLDGYGIHPKSIPLDNYFTARRLL [D13P] | 2.26 |

| Variant | protein stability index |
| --- | --- |
| TLDGYGIHPKSIRLDNYFTARRLL [D13R] | 1.91 |
| TLDGYGIHPKSIYLDNYFTARRLL [D13Y] | 1.46 |
| TLDGYGIHPKSIALDNYFTARRLL [D13A] | 1.84 |
| TLDGYGIHPKSIELDNYFTARRLL [D13E] | 2.45 |
| TLDGYGIHPKSIILDNYFTARRLL [D13I] | 2.77 |
| TLDGYGIHPKSIVLDNYFTARRLL [D13V] | 1.76 |
| TLDGYGIHPKSIGLDNYFTARRLL [D13G] | 2.25 |
| TLDGYGIHPKSITLDNYFTARRLL [D13T] | 2.11 |
| TLDGYGIHPKSGDLDNYFTARRLL [I12G] | 2.43 |
| TLDGYGIHPKSRDLDNYFTARRLL [I12R] | 1.93 |
| TLDGYGIHPKSEDLDNYFTARRLL [I12E] | 2.99 |
| TLDGYGIHPKSADLDNYFTARRLL [I12A] | 1.89 |
| TLDGYGIHPKSMDLDNYFTARRLL [I12M] | 1.75 |
| TLDGYGIHPKSPDLDNYFTARRLL [I12P] | 3.06 |
| TLDGYGIHPKSYDLDNYFTARRLL [I12Y] | 1.99 |
| TLDGYGIHPKSCDLDNYFTARRLL [I12C] | 2.18 |
| TLDGYGIHPKSHDLDNYFTARRLL [I12H] | 2.24 |
| TLDGYGIHPKSVDLDNYFTARRLL [I12V] | 1.85 |
| TLDGYGIHPKSKDLDNYFTARRLL [I12K] | 1.85 |
| TLDGYGIHPKSDDLDNYFTARRLL [I12D] | 3.05 |
| TLDGYGIHPKSFDLDNYFTARRLL [I12F] | 2.02 |
| TLDGYGIHPKSLDLDNYFTARRLL [I12L] | 1.66 |
| TLDGYGIHPKSNDLDNYFTARRLL [I12N] | 1.93 |
| TLDGYGIHPKSQDLDNYFTARRLL [I12Q] | 2.33 |

| Variant | protein stability index |
| --- | --- |
| TLDGYGIHPKSSDLDNYFTARRLL [I12S] | 1.87 |
| TLDGYGIHPKSTDLDNYFTARRLL [I12T] | 1.99 |
| TLDGYGIHPKSWDLDNYFTARRLL [I12W] | 2.05 |
| TLDGVGIHPKSIDLDNYFTARRLL [Y5V] | 2.42 |
| TLDGPGIHPKSIDLDNYFTARRLL [Y5P] | 2.13 |
| TLDGTGIHPKSIDLDNYFTARRLL [Y5T] | 2.13 |
| TLDGFGIHPKSIDLDNYFTARRLL [Y5F] | 1.89 |
| TLDGKGIHPKSIDLDNYFTARRLL [Y5K] | 1.85 |
| TLDGSGIHPKSIDLDNYFTARRLL [Y5S] | 2.05 |
| TLDGMGIHPKSIDLDNYFTARRLL [Y5M] | 2.5 |
| TLDGEGIHPKSIDLDNYFTARRLL [Y5E] | 2.21 |
| TLDGHGIHPKSIDLDNYFTARRLL [Y5H] | 2.12 |
| TLDGQGIHPKSIDLDNYFTARRLL [Y5Q] | 1.48 |
| TLDGAGIHPKSIDLDNYFTARRLL [Y5A] | 2.67 |
| TLDGWGIHPKSIDLDNYFTARRLL [Y5W] | 1.97 |
| TLDGGGIHPKSIDLDNYFTARRLL [Y5G] | 2.43 |
| TLDGRGIHPKSIDLDNYFTARRLL [Y5R] | 1.76 |
| TLDGIGIHPKSIDLDNYFTARRLL [Y5I] | 2.21 |
| TLDGLGIHPKSIDLDNYFTARRLL [Y5L] | 2.3 |
| TLDGDGIHPKSIDLDNYFTARRLL [Y5D] | 2.8 |
| TLDGNGIHPKSIDLDNYFTARRLL [Y5N] | 2.25 |
| TLDGCGIHPKSIDLDNYFTARRLL [Y5C] | 2.01 |
